# According to patent US7128911:
# T1: C-RANKL protein (RANKL fragment with N-terminal cysteine-containing amino acid linker and hexa-histidine tag, … (mouse, UniProt O35235 137-316))
# T1 construct: Coated on ELISA plates at 10 ug/ml
# T1 sequence: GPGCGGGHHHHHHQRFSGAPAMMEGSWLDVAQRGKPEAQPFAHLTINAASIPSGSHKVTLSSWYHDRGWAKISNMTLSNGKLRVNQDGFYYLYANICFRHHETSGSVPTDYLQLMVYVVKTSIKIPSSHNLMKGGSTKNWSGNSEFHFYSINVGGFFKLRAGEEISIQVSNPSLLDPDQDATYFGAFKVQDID
# B1: purified RANK-Fc fusion protein (Fc fusion)
# chain: VTPPCTQERHYEHLGRCCSRCEPGKYLSSKCTPTSDSVCLPCGPDEYLDTWNEEDKCLLHKVCDAGKALVAVDPGNHTAPRRCACTAGYHWNSDCECCRRNTECAPGFGAQHPLQLNKDTVCTPCLLGFFSDVFSSTDKCKPWTNCTLLGKLEAHQGTTESDVVCSSSMTLRRPPKEAQAYLPS
# Biological target: T1, C-RANKL protein (RANKL fragment with …)
# Experiment: ELISA, plates coated with 10 ug/ml C-RANKL, serial dilutions of RANK-Fc, anti-Fc-HRP detection
binder,measurement,value
B1,EC50,1 to 3 nM
